In the Immune Epitope Database (IEDB) one finds Kd and IC50 data, which are given here for 43 sequences.

Assay [1] has as its target HLA-A*01:01. Nature of the assay: IEDB peptide-MHC binding, purified MHC/competitive/radioactivity; filed as Kd, often an IC50 or EC50 that approximates it; ≥ and ≤ were set here for values at or beyond the usual limits of such assays.
The next assay deals with HLA-B*53:01. The description is as above.
For the next assay, the target named is HLA-A*24:02. Described as above.
Assay [2] concerns the target HLA-A*01:01. Nature of the assay: IEDB peptide-MHC binding, purified MHC/direct/fluorescence; filed as Kd, often an IC50 or EC50 that approximates it; ≥ and ≤ were set here for values at or beyond the usual limits of such assays.
In the next assay the target is HLA-A*03:01. The assay is described as above. To be noted: source organism: Pseudomonas aeruginosa UCBPP-PA14.
Assay [3] deals with HLA-A*31:01. Described as above.
Assay [4] concerns the target HLA-A*02:01. Nature of the assay: IEDB peptide-MHC binding, purified MHC/competitive/fluorescence; ≥ and ≤ were set here for values at or beyond the usual limits of such assays.
Another assay has as its target HLA-B*44:02. Nature of the assay: IEDB peptide-MHC binding, purified MHC/competitive/radioactivity; filed as Kd, often an IC50 or EC50 that approximates it; ≥ and ≤ were set here for values at or beyond the usual limits of such assays.
A further assay addresses HLA-B*44:03. The assay is described as above.
In another assay the target is HLA-B*07:02. Nature of the assay: IEDB peptide-MHC binding, purified MHC/direct/fluorescence; filed as Kd, often an IC50 or EC50 that approximates it; ≥ and ≤ were set here for values at or beyond the usual limits of such assays.
The target in a further assay is HLA-A*69:01. Described as above.
Assay [5] concerns the target HLA-B*40:01. Described as above. To be noted: source organism: Haemophilus influenzae.
The target of the next assay is HLA-A*26:01. Nature of the assay: IEDB peptide-MHC binding, purified MHC/competitive/radioactivity; filed as Kd, often an IC50 or EC50 that approximates it; ≥ and ≤ were set here for values at or beyond the usual limits of such assays.
The next assay deals with HLA-A*30:02. Described as above. To be noted: source organism: Mammarenavirus caliense.
Assay [6] concerns the target HLA-B*40:01. The description is as above.
Assay [7] has as its target HLA-A*31:01. The description is as above. The conditions noted are these: source organism: Dengue virus 2 Jamaica/1409/1983.
The next assay concerns the target HLA-A*33:01. Described as above. The conditions noted are these: source organism: Dengue virus 2 Jamaica/1409/1983.
For a further assay, the target named is HLA-A*68:01. Described as above. To be noted: source organism: Dengue virus 2 Jamaica/1409/1983.
In assay [8] the target is HLA-A*02:01. Nature of the assay: IEDB peptide-MHC binding, purified MHC/direct/fluorescence; filed as Kd, often an IC50 or EC50 that approximates it; ≥ and ≤ were set here for values at or beyond the usual limits of such assays. The conditions noted are these: source organism: Bacillus anthracis.
Setting [9] is: source organism: Dengue virus 1 Brazil/97-11/1997.
[10] abbreviates: source organism: Dengue virus 3 Martinique/1243/1999.
Where [11] appears, read: source organism: Zaire ebolavirus.
[12] abbreviates: source organism: Dengue virus 2 Jamaica/1409/1983.
Where [13] appears, read: source organism: Dengue virus 2 16681-PDK53.
Setting [14] is: source organism: Vaccinia virus.
Setting [15] is: source organism: Sudan ebolavirus.
Setting [16] is: source organism: Haemophilus influenzae.
Setting [17] is: source organism: Mammarenavirus caliense.
The mark [18] stands for this setting: source organism: Dengue virus 4 Philippines/H241/1956.

Some results are limits rather than exact numbers.

In the case of LTEFQPHQLW, the equilibrium dissociation constant (Kd) amounted to 12900 nM with HLA-A*01:01 [1] (setting [9]) and 990 nM in the assay with HLA-B*53:01 (setting [9]).

With LYAVATTFIT, the Kd with HLA-A*24:02 (source organism: Dengue virus 2 Peru/IQT2913/1996) is not below 23500 nM.

MASTPASRY returned a Kd in the assay with HLA-A*01:01 [2] (source organism: Influenza A virus (A/Fujian/411/02-like(H3N2))) not below 20000 nM.

For MTTEDMLTVW, the Kd in the assay with HLA-B*53:01 (setting [10]) came out at 122 nM.

In the case of MVTGGIRRR, the Kd in the assay with HLA-A*03:01 was not below 20000 nM; with HLA-A*31:01 [3] (source organism: Pseudomonas aeruginosa UCBPP-PA14) it was 251 nM.

On to NAGQFLSFA, for which the 50% inhibitory concentration (IC50) with HLA-A*02:01 [4] (setting [11]) is not below 121000 nM.

Take NEAIMAVGM: the Kd was determined as 84.5 nM with HLA-B*44:02 (setting [12]) and 224 nM with HLA-B*44:03 (setting [12]).

NEMVLLQME: the Kd with HLA-B*44:02 (setting [12]) came to 907 nM.

For the sequence NKAWLVHRQW, the Kd was 1160 nM with HLA-B*44:02 (setting [13]) and 4090 nM with HLA-B*44:03 (setting [13]).

In the assay with HLA-A*02:01 [4] (setting [14]), NLSPETLVG returned an IC50 not below 170000 nM.

Sequence NLTYVQLES returned a half-maximal inhibitory concentration (IC50) with HLA-A*02:01 [4] (setting [11]) of 11000 nM. In other words, the double-digit micromolar range.

For the sequence NPAVLRKLCI, the Kd with HLA-B*53:01 (setting [9]) came to 5200 nM.

As for NPQKENDQY, in the assay with HLA-B*53:01 (setting [10]), the dissociation constant (Kd) stood at 2080 nM.

As to NPTVDGITVI, the Kd in the assay with HLA-B*53:01 (setting [12]) came to 2510 nM.

The sequence NPVPVGNIY came in with a Kd in the assay with HLA-B*07:02 (source organism: Human immunodeficiency virus type 2 (ISOLATE D205,7)) not below 40300 nM.

The sequence QIPSSSPTT returned an IC50 with HLA-A*02:01 [4] (setting [15]) of 42800 nM.

REAVEDSRFW: the Kd with HLA-B*44:02 (setting [12]) amounted to 78.7 nM; in the assay with HLA-B*44:03 (setting [12]), 127 nM.

Turning to RFEAYGWQV, the dissociation constant (Kd) stood at 924 nM with HLA-A*31:01 [3] (setting [16]), 337 nM with HLA-A*69:01 (setting [16]) and 227 nM in the assay with HLA-B*40:01 [5].

Regarding RPEAAAGQL, in the assay with HLA-B*07:02 (source organism: Mycobacterium tuberculosis variant bovis BCG str. Pasteur 1173P2), the Kd was 179 nM.

With SEFKSRFFIW, the Kd was 2210 nM in the assay with HLA-A*01:01 [1] (setting [17]), not below 69700 nM with HLA-A*26:01 (setting [17]) and 7480 nM with HLA-A*30:02.

As for SELPETLETL, in the assay with HLA-B*40:01 [6] (setting [12]), the Kd stood at 7.2 nM.

Consider SENEVKLTIM, for which the results for the Kd in the assay with HLA-B*40:01 [6] (setting [12]), with HLA-B*44:02 (setting [12]) and with HLA-B*44:03 (setting [12]) were 974 nM, 23.7 nM and 377 nM, respectively.

SEVCDHRLM: the values for the Kd with HLA-B*40:01 [6] (setting [18]), with HLA-B*44:02 (setting [18]) and with HLA-B*44:03 (setting [18]) were 303 nM, 26 nM and 76.1 nM, respectively.

In turn, SFTVVSNGA registered an IC50 with HLA-A*02:01 [4] (setting [11]) not below 372000 nM.

As for SLEKAAEVSW, the Kd with HLA-B*44:02 (setting [9]) was found to be 174 nM.

Sequence SPSKRNQTF yielded a Kd with HLA-B*07:02 (source organism: Mammarenavirus amapariense) of 66.8 nM.

Take SQILLMRTTW: the Kd is 359 nM with HLA-B*44:02 (setting [9]) and 327 nM in the assay with HLA-B*44:03 (setting [9]).

On to TLAGVNVGE, for which, in the assay with HLA-A*02:01 [4] (setting [11]), the IC50 is not below 211000 nM.

TQSRPIQNV: the IC50 in the assay with HLA-A*02:01 [4] (setting [11]) was determined as 14600 nM. In other words, the double-digit micromolar range.

Regarding TTQDEGAAI, in the assay with HLA-A*02:01 [4] (setting [11]), the IC50 was not below 220000 nM.

TVMDIISRR: the Kd with HLA-A*26:01 (setting [12]) turned out to be 2710 nM; in the assay with HLA-A*31:01 [7], 17.9 nM; with HLA-A*33:01, 11.1 nM; with HLA-A*68:01, 3.87 nM.

Turning to TWPKSHTLW, the dissociation constant Kd with HLA-A*24:02 (setting [10]) was 39.8 nM.

With TYGLNTFTN, the dissociation constant Kd with HLA-A*24:02 (setting [12]) came to 1590 nM.

Turning to VAELVHFLL, the Kd with HLA-A*24:02 (source organism: Homo sapiens) amounted to 149 nM.

For VDLHPASAW, the Kd in the assay with HLA-B*44:02 (setting [9]) amounted to 80.2 nM.

For the sequence VEDYGFGMF, the dissociation constant (Kd) with HLA-B*40:01 [6] (setting [18]) came out at 965 nM.

For VILSLPRIA, the IC50 with HLA-A*02:01 [4] (source organism: Variola virus) turned out to be 1390 nM.

With VLNGAELSN, in the assay with HLA-A*02:01 [4] (setting [14]), the IC50 was not below 114000 nM.

With VLRGNRQGL, the Kd was 4460 nM in the assay with HLA-A*02:01 [8] and not below 20000 nM with HLA-A*69:01 (source organism: Bacillus anthracis).

On to VTNSTLEVT, for which the IC50 with HLA-A*02:01 [4] (setting [15]) is not below 122000 nM.

VYTQLCDHRL: in the assay with HLA-A*24:02 (setting [10]), the Kd is 6.35 nM.

Turning to YENLKYSVIV, the dissociation constant Kd in the assay with HLA-B*40:01 [6] (setting [9]) was 70.6 nM.

On to YVDHYYRDY, for which the Kd in the assay with HLA-A*01:01 [2] (source organism: Homo sapiens) amounted to 92.3 nM; in the assay with HLA-A*69:01 (source organism: Homo sapiens) it was 2000 nM.
